Laboratory results reported in PMC3949306.
Blank lines part the entries; values can stand above or below the binder they belong to.

Columns and labels:
[1] = molecular target: PP2A-B55α heterotrimer (not stated | human (endogenous in HEK293)) (UniProt P63151)
[2] = molecular target: PP2A-B55 heterotrimer (B55 isoform not named for the experiment) (not stated | human (endogenous in HEK293)) (UniProt P63151)
[3] = molecular target: PP2A-B55 heterotrimer (B55 isoform not named for the experiment) (not stated | human (endogenous in HEK293)) (UniProt P63151); test: inhibition of phosphatase activity, IC50 converted to Kd; PP2A-B55 at 0.125 nM, radioactive CDKS substrate at 5 μM, varying thiophosphorylated Endos; Kd calculated from the IC50 according to the equation of Sasaki et al. (1994) and Takai et al. (1995)
[4] = molecular target: PP2A-B55 heterotrimer (B55 isoform not named for the experiment) (not stated | human (endogenous in HEK293)) (UniProt P63151); remark: listed apart in the source
[5] = molecular target: PP2A-B55 heterotrimer (B55 isoform not named for the experiment) (not stated | human (endogenous in HEK293)) (UniProt P63151); test: rate constants calculated from constants of phosphatase activity assays; kon and koff determined from the experimentally measured Kd (for thiophosphorylated Endos) and kcat; used for the theoretical time-course of Figure 10A

Sequence of UniProt P63151 (P63151 whole entry, chain 1 of 3, canonical isoform): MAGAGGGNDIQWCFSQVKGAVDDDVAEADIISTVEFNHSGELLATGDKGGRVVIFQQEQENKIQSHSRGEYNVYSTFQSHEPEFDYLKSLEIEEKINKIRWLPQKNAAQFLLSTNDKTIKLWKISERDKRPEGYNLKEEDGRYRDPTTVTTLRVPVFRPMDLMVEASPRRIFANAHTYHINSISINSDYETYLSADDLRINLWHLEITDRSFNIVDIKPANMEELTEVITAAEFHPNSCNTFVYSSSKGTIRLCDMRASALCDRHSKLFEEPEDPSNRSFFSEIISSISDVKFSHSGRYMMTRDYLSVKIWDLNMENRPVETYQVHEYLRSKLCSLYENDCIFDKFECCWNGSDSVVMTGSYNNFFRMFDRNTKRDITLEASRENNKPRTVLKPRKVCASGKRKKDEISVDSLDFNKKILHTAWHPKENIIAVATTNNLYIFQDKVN
Sequence of UniProt P63151 (P30153 whole entry, chain 2 of 3, further chain, canonical isoform): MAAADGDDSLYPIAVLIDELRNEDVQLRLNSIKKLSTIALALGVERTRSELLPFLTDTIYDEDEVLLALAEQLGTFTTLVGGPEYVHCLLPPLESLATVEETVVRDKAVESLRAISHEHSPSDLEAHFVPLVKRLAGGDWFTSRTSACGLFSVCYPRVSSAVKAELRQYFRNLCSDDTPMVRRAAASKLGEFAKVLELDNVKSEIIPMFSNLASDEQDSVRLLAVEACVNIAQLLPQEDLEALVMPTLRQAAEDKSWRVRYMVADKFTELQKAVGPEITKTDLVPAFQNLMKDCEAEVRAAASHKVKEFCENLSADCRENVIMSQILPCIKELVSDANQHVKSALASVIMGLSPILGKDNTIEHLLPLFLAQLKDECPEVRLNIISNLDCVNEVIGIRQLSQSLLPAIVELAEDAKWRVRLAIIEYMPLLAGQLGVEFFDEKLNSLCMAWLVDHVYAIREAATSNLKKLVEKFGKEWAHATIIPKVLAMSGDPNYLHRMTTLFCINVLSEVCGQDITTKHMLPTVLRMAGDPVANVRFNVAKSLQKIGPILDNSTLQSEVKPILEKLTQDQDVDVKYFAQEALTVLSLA
Sequence of UniProt P63151 (P67775 whole entry, chain 3 of 3, further chain, canonical isoform): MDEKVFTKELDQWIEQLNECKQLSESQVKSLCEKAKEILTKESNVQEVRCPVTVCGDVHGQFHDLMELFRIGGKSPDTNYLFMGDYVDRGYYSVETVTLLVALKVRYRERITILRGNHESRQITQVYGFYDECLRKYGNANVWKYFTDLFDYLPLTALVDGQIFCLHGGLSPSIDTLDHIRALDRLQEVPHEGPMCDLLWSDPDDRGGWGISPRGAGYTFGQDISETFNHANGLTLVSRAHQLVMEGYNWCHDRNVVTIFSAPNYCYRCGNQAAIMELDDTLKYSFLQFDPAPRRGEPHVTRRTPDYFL

- IC50 of inhibition of the anti-CDKS activity of purified PP2A-B55α (Figure 6D) [1]: 500 nM
B1: phosphomimetic Drosophila Endos (S68D) (natural protein)
chain: MSSAEENSNSPATTPQDTETTEQANLTDLEKIEEEKLKSKYPSGMRVPGGHSAFLQKRLQKGQKFFDDGDYQMAKQKGGGVKQVFANKVTTGEAIPTPETVPARKTSIIQPCNKFPATS

- IC50 of inhibition of PP2A-B55's anti-CDKS activity (dephosphorylation of radioactive pCDKS) [2]: 566 nM
B4: unphosphorylated Xenopus Endosulfine (natural protein)
chain: MSDKYIGDSHLEETGEEKQDSQEKEAVTPEKAEEQKLKAKYPNLGQKPGGSDFLMKRLQKGQKYFDSGDYNMAKAKIKNKQLPCAGPDKNLVTGDHIPTPQDLPQRKSSLVTSKLAGHVEDLHHV

Second part, the binder before the results:

B2: Xenopus Endosulfine thiophosphorylated by Gwl kinase (natural protein)
chain: MSDKYIGDSHLEETGEEKQDSQEKEAVTPEKAEEQKLKAKYPNLGQKPGGSDFLMKRLQKGQKYFDSGDYNMAKAKIKNKQLPCAGPDKNLVTGDHIPTPQDLPQRKSSLVTSKLAGHVEDLHHV
modifications: thiophosphorylated by Gwl in the presence of 1 mM ATP-[γ]-35S instead of ATP
- IC50 of inhibition of PP2A-B55's anti-CDKS activity (dephosphorylation of radioactive pCDKS) [2]: 197 pM
- Kd [3]: 0.12 nM

B3: Gwl-phosphorylated Xenopus Endosulfine (pEndos) (natural protein)
chain: MSDKYIGDSHLEETGEEKQDSQEKEAVTPEKAEEQKLKAKYPNLGQKPGGSDFLMKRLQKGQKYFDSGDYNMAKAKIKNKQLPCAGPDKNLVTGDHIPTPQDLPQRKSSLVTSKLAGHVEDLHHV
modifications: phosphorylated in vitro by Gwl kinase at the Gwl site (32P-labelled or non-radioactive); between 0.5 and 1.0 phosphate per mole of protein
- Km of pEndos for PP2A-B55, best fit to the time course of pCDKS dephosphorylation with 16 nM unlabeled pEndos (Figure 8B) [4]: 0.47 nM
- koff [5]: 0.0068 s⁻¹
